How the values were obtained:
[1] = tested on: LPS-induced release of endogenous TNFα from human THP-1 macrophage cells; assay: ELISA-based TNFα release assay with purified antibody (Example 11); format: cell-based; details: antibody at 10 μg/ml final; LPS 50 ng/ml, 2 hours
Method: In the following study, ELISA-based TNFα release assays were performed to verify the inhibitory effects of the purified antibody 4H8-E3 of the invention on LPS-induced release of endogenous TNFα from human THP-1 macrophage cells.
In brief, on day 1, Nunc black MaxiSorp® 96-well plates (Thermo Fisher Scientific, USA) were coated overnight with 100 μl per well of mouse anti-human TNFα capture antibody (provided as part of the DuoSet ELISA kit) at 4 μg/ml TBS at 4° C. On day 2, the capture antibody solution was removed and MaxiSorp® plates were blocked with 300 μl per well of TBS, 1% BSA at room temperature for 3 hours. […] Using an infinite M1000 PRO (Tecan Group, Switzerland) microplate reader, the fluorescence of each well was collected at an excitation wavelength of 435 nm and an emission wavelength of 555 nm.

human iRhom2 [2] = target: T1, human iRhom2 (Homo sapiens, UniProt Q6PJF5); assay: Peptide binding ELISA, target region determination (Example 9); details: antibody 3 μg/ml; peptide coated at 10 μg/ml; normalized to IgM isotype control
T1 construct: made in house; host or cells: chemical synthesis (Fmoc solid phase peptide synthesis), no expression host
T1 sequence (Q6PJF5 431-459): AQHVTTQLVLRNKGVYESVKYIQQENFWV
Method: (§1) Next, peptide binding ELISA analyses were performed to verify whether the purified antibody 4H8-E3 of the invention recognizes any of the peptides that were administered to those animals the hybridoma clone 4H8 was derived from, thereby shedding light on the target region being recognized by the antibody 4H8-E3 of the invention.
(§2) In brief, on day 1, Nunc black MaxiSorp® 96-well plates (Thermo Fisher Scientific, USA) were coated overnight with 100 μl per well of single biotinylated peptides 1 to 11 as well as mixes of peptides 1 to 4 (Mix A), 5 to 7 (Mix B), and 8 to 11 (Mix C) at 10 μg/ml TBS each (thus, the final concentration of each peptide in mixes 1 to 4 and 8 to 11 was 2.5 μg/ml versus 3.3 μg/ml in mix 5 to 7) at 4° C. On day 2, peptide solutions were removed and MaxiSorp® plates were blocked with 300 μl per well of Pierce protein-free (TBS) blocking buffer (Thermo Fisher Scientific, USA) at room temperature for 1.5 hours. The blocking buffer was then removed and plates were washed 4 times with 350 μl per well of TBS-T (Carl Roth, Germany) on a 96-head plate washer (Tecan Group, Switzerland). Afterwards, 100 μl per well of TBS as blank control, mouse anti-biotin antibody (clone BN-34, Sigma-Aldrich, USA) at 0.3 μg/ml TBS as coating control, the purified antibody 4H8-E3 of the invention at 3 μg/ml TBS, and mouse IgM antibody (clone MOPC 104E, Sigma-Aldrich, USA) as isotype control to the purified antibody 4H8-E3 of the invention at 3 μg/ml TBS were added to wells pre-coated with single peptides 1 to 11 or respective mixes and incubated at room temperature for 4 hours. Subsequently, the plates were washed 4 times with 350 μl per well of TBS-T (Carl Roth, Germany) on a 96-head plate washer (Tecan Group, Switzerland) again and, protected from direct light, were incubated with 100 μl per well of AP-conjugated goat anti mouse IgG/IgG/IgM F(ab′)2 fragment (Sigma-Aldrich, USA) diluted 1:2,000 in TBS for 1 hour at room temperature. Following another round of 4 washing steps with 350 μl per well of TBS-T (Carl Roth, Germany) on a 96-head plate washer (Tecan Group, Switzerland) and careful removal of all buffer traces after the fourth cycle, 100 μl of AttoPhos substrate solution (Promega, USA) were added for incubation in the dark and at room temperature for 1 hour. Using an infinite M1000 PRO (Tecan Group, Switzerland) microplate reader, the fluorescence of each well was collected at an excitation wavelength of 435 nm and an emission wavelength of 555 nm.

human iRhom2 [3] = assay: as above; details: antibody 3 μg/ml, normalized to IgM isotype control
Method: as §1, §2

[4] = peptides coated individually or as mix

B1: 4H8-E3: Mouse IgM monoclonal antibody against the human iRhom2 juxtamembrane domain adjacent to TMD1; HC VD SEQ ID NO 33, LC VD SEQ ID NO 40 (antibody, V domains shown)
VH: EVQLQQSGPELVKPGASVKISCKASGYTFTDYYMNWVKQSHGKSLEWIGDINPNNGGTSYNQKFKGKATLTVDKSSNTAYMEFRSLTSEDSAVYYCARRGYYGVDYWGQGTTLTVSS
VL: NIVMTQSPKSMSMSVGERVTLNCKASENVGTYVSWYQQKPEQSPKLLIFGASNRYTGVPDRFIGSGFATDFTLTISSVQAEDLADYHCGQSYSYPYTFGGGTKLEIK
modifications: IgM constant regions; antibody sequence
- inhibition of LPS-induced release of TNFα from THP-1 cells [1]: 62.6%
- binding to single peptide 3 (amino acids 431 to 459 of human iRhom2 juxtamembrane domain) (human iRhom2 [2]): strong binding
- binding to Mix A consisting of peptides 1, 2, 3 and 4 (human iRhom2 [3]; biotinylated peptides coated at 10 μg/ml): strong binding
- binding to peptides 5, 6 and 7 (large extracellular loop) (human iRhom2 [3]; [4]): no binding
- binding to peptides 8, 9, 10 and 11 (C-terminal tail of human iRhom2) (human iRhom2 [3]; [4]): no binding

Source: patent US20220204610A1, “PROTEIN BINDERS FOR IRHOM2” (NEW YORK SOCIETY FOR THE RELIEF OF THE RUPTURED AND …, priority 2019, published 2022)
